Experimental data from patent US20120263652A1 (UNIVERSITY OF MARYLAND COLLEGE PARK, published 2012).

Legend:
[1] = molecular target: human ICAM-1 (native, expressed on human cells: HUVEC, Caco-2) (human) (UniProt P05362); assay: FITC IgG polystyrene carriers on fixed TNF-α-activated Caco-2 cells; fluorescence microscopy
[2] = molecular target: human ICAM-1 (native, expressed on human cells: HUVEC, Caco-2) (human) (UniProt P05362); assay: competition: free non-specific IgG against FITC anti-ICAM carriers on Caco-2 cells; fluorescence microscopy
[3] = molecular target: mouse ICAM-1 (native, expressed on mouse endothelial cells) (mouse) (UniProt P13597); assay: phage binding to H5V mouse endothelial cells; microscopy with fluorescent antibody to the phage capsid
[4] = molecular target: T1, mouse ICAM-1 chimera: the two most membrane-distal Ig domains (1 and 2) of mouse ICAM-1 fused to human Fc (mouse; human, UniProt P13597 28-214, limits assumed); assay: phage ELISA on immobilized mouse ICAM-1/hFc
T1 construct: domain: the two most membrane-distal Ig domains -1 and 2-; also called mouse ICAM-1/Fc; mouse ICAM-1/hFc; not shown: human Fc (hFc)
Excerpt: (§1) Example 5 details development of the 7-mer phage-display derived peptides against ICAM-1. These were identified and isolated from a random library by using a chimeric ICAM-1 protein consisting of the two most membrane-distal Ig domains of mouse ICAM-1 fused to human Fc (hFc). One round of negative selection against hFc, followed by three rounds of positive selection against mouse ICAM-1/hFc, rendered six phage clones (A1, B7, B8, B9, B10, and D6), which recognized immobilized mouse ICAM-1 (FIG. 5A).
(§2) (A) ELISA measurement of the binding of 7-mer peptide expressing phage library to immobilized recombinant ICAM-1 (consisting of the two most membrane-distal Ig domains −1 and 2- of mouse ICAM-1 fused to human Fc or hFc), versus their binding to control hFc. (B) Relative specificity and (C) relative affinity of ICAM-1-targeting peptide phages, determined by ELISA from the experiment in (A). (D) Relative binding of phages expressing 7-mer peptides to native ICAM-1 expressed on the surface of HV5 mouse endothelial cells, either control or activated with TNFalpha to mimic a disease phenotype. Binding was determined by microscopy using a fluorescently-labeled antibody to the phage capsid.

[5] = molecular target: T2, human ICAM-1 (native, expressed on human cells: HUVEC, Caco-2) (human, UniProt P05362 28-532); assay: 100 nm FITC polystyrene carriers coated with peptide on endothelial cells; fluorescence microscopy
T2 construct: whole, on cells; also called intercellular adhesion molecule 1; native human ICAM-1

[6] = molecular target: T1, mouse ICAM-1 chimera: the two most …; assay: phage ELISA, binding to mouse ICAM-1/hFc relative to control hFc
Excerpt: as §1, §2

[7] = molecular target: T1, mouse ICAM-1 chimera: the two most …; assay: phage ELISA on immobilized mouse ICAM-1/hFc, relative to non-selected phages
Excerpt: as §1, §2

[8] = molecular target: T1, mouse ICAM-1 chimera: the two most …; assay: γ3 absorbed on 100 nm FITC polystyrene particles; nitrocellulose-immobilized ICAM-1/Fc vs albumin; fluorescence microscopy
Protocol: (A) The peptide γ3 was absorbed on the surface of 100 nm FITC-labeled polystyrene carriers and the resulting products were incubated for 15 min on nitrocellulose-immobilized albumin vs human or mouse ICAM-1 chimeras containing ICAM-1-Ig domains 1 and 2 fused to human Fc sequence. The membranes were washed and analyzed by fluorescence microscopy to quantify the number of carriers bound per area. Data are expressed relative to non-specific binding of γ3 carriers to albumin controls (dotted line). A comparison to binding of anti-ICAM carriers is provided (dashed line). (B) Binding of FITC-labeled polystyrene carriers coated by absorption with the peptide γ3 and recombinant acid sphingomyelinase (ASM, a therapeutic enzyme) to activated HUVEC (bars) vs ICAM-1-negative 293 cells (dotted line) was quantified by fluorescence microscopy after 1 h incubation at 37° C., in the absence or presence of excess γ3, anti-ICAM, γ3 scramble peptide, or mannose 6 phosphate (M6P). […] (C) HUVEC lysosomes were labeled for 2 h with Texas-red dextran at 37° C. […] Co-localization of FITC carriers with Texas-red dextran-lysosomes was quantified by fluorescence microscopy. […] Co-localization of FITC 2γ3 carriers with Texas red dextran-labeled lysosomes was assessed by microscopy 3 h post-internalization. […]

[9] = molecular target: T2, human ICAM-1 (native, expressed on …); assay: competition: synthetic peptide against FITC anti-ICAM polystyrene nanocarriers on human endothelial cells; fluorescence microscopy
Excerpt: as §2, with “capsid. The line in the graph indicates the level of binding of A1 phage to 293 cells, which are voided of ICAM-1-expression. […] (G) Binding of FITC-labeled anti-ICAM polystyrene nanocarriers to human endothelial cells was evaluated by fluorescence microscopy after incubation with cells in the absence (100% level) or presence of anti-ICAM antibody, ICAM-1-targeting synthetic peptides, or peptides with their scramble sequence (e.g., A1 sc).” for “capsid.”

T1 sequence (P13597 28-214 limits assumed, stated change not applied): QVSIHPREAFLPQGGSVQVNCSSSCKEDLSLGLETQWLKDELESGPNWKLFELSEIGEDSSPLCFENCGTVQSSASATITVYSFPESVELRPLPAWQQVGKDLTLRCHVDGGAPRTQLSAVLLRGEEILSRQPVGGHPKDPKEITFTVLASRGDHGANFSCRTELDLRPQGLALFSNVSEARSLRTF
T2 sequence (P05362 28-532): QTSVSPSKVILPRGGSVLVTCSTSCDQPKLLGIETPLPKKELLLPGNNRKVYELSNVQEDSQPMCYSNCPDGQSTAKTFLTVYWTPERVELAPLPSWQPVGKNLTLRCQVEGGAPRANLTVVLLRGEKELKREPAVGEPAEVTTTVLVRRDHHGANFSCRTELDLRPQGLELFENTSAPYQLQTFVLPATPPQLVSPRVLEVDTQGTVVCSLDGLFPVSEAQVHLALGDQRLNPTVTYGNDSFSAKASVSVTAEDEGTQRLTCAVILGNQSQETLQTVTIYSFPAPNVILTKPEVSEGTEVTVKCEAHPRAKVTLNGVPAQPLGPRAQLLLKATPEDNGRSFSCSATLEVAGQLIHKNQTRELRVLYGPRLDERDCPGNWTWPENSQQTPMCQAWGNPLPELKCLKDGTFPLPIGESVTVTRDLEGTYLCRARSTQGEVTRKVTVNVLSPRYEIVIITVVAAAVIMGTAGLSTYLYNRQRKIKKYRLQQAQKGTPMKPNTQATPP
Sequence of human ICAM-1 (native, expressed on human cells: HUVEC, Caco-2) (human) (P05362 28-532): as above

How did the carriers/cell (carriers/cell) [1] turn out when non-specific IgG (control) (antibody) was run?
The carriers/cell (carriers/cell) was 1.3.

What about the carrier binding, % of the control value with no competitor [2] of the same molecule?
Its carrier binding, % of the control value with no competitor is 102 % of control.

B1: D6 peptide (phage display-derived 7-mer) (peptide)
peptide: GCKLCAQ
How did the affinity, % of A1 [3] turn out when B1 was run?
The affinity, % of A1 was 92.9 % of A1.

B2: B9 peptide (phage display-derived 7-mer) (peptide)
peptide: FSPHSRT
notes: Tested as a phage clone and as a synthetic peptide; The assay field says which; also called B9 clone
What does the source list for B2?
binding result [4]: binds; affinity, % of A1 [3]: 72.3 % of A1

B3: 2γ3 peptide (peptide)
peptide: NNQKIVNIKEKVAQIEA
notes: Derivative of γ3, tested absorbed on polystyrene or PLGA carriers; also called 2γ3 carriers; 2γ3/ASM carriers
Does B3 bind [5]?
Result: binds

B4: 3γ3 peptide (peptide)
peptide: NNQKLVNIKEKVAQIEA
notes: Derivative of γ3, tested absorbed on polystyrene carriers; also called 3γ3 carriers; 3γ3/ASM carriers
Does B4 bind [5]?
Result: binds

B5: A1 peptide (phage display-derived 7-mer) (peptide)
peptide: YPASYQR
notes: Tested as a phage clone (5 copies of the peptide on the capsid; coat protein fusion not described) and as a peptide synthesized in vitro; The assay field says which; also called A1 clone; clone A1 phages
How did the “specificity vs hFc” value [6] turn out when B5 was run?
The value was about 5.1 fold.

What about the “affinity, fold over non-selected phages” value [7] of the same molecule?
Its value is about 4.7 fold.

B6: γ3 peptide (17 amino acid peptide derived from the γ chain of fibrinogen) (peptide)
peptide: NNQKIVNLKEKVAQLEA
notes: Synthetic peptide; Tested mostly absorbed on 100 nm FITC polystyrene carriers, in some assays together with recombinant acid sphingomyelinase (ASM); also called γ3 carriers; γ3/ASM carriers
Does B6 bind [8]?
Result: binds

B7: B8 peptide (phage display-derived 7-mer) (peptide)
peptide: GSLLSAA
notes: Tested as a phage clone and as a synthetic peptide; The assay field says which; also called B8 clone
Does B7 bind [9]?
Result: binds
